Data: US20240409645A1 (DUALYX, published 2024)

T1: human common cytokine receptor γ-chain (IL-2Rγ) (human, UniProt P31785 23-262, limits assumed)
T1 construct: Recombinant human IL-2Rγ protein, coated (ELISA) or amine-coupled to a CM5 chip (SPR); also called hu IL-2R; CD132
T1 sequence: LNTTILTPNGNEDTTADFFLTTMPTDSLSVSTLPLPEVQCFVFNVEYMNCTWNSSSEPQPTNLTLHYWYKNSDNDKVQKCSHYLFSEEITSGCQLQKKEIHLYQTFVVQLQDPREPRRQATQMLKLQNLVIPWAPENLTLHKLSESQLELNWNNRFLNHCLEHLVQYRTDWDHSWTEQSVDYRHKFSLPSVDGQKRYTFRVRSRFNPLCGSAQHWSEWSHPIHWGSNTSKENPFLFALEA

T2: mouse common cytokine receptor γ-chain (IL-2Rγ) (mouse, UniProt P34902 23-263, limits assumed)
T2 construct: Recombinant mouse IL-2Rγ protein; also called mo IL-2R; mouse IL-2R gamma
T2 sequence (looked up): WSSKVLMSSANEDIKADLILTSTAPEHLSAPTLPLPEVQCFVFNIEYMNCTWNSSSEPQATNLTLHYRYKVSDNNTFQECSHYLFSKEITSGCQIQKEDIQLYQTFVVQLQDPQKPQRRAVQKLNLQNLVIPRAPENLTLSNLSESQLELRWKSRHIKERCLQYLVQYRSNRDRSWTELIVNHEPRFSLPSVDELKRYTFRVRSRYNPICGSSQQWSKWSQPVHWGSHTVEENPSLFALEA

B1: FJ1427_P035MP07B08 (VHH)
VHH: EVQLVESGGGSVQPGGSLRLSCAASGRTLSRYAMGWFRQAPGKEREFVTANSWGGDTYYADSVQGRFTFSRDNAKNTVYLQMNSLQPEDTAVYYCAAAPTSFATTAYSSSNSYAYWGQGTQVTVSS
notes: tested as periplasmic extract; also called Clone nr; 634
B2: FJ1427_P035MP07D09 (VHH)
VHH: EVQLVESGGGLVQAGGSLRLSCAASGRTLSRYAMGWFRQAPGKEREFVTANSWGGDTYYADSVQGRFTFSRDNAKNTVYLQMNSLQPEDTAVYYCAAAPTSFATTAYSSSNSYAYWGQGTQVTVSS
notes: tested as periplasmic extract; also called Clone nr
B3: FJ1427_P035MP07C06 (VHH)
VHH: QVQLVESGGGLVQAGGSLRLSCAASGRTLSRYAMGWFRQAPGKEREFVTANSWGGDTYYADSVQGRFTFSRDNAENTVYLQMNSLQPEDTAVYYCAAAPTSFATTAYSSSNSYAYWGQGTQVTVSS
notes: as for B2
B4: FJ1427_P035MP07D05 (VHH)
VHH: QVQLVESGGGLVQAGGSLRLSCAASGRTLSRNAMGWFRQAPGKEREFVAADSWGGDTFYADSVEGRFTFSRDNAKNAVYLQMNSLQPEDTAVYYCAGAPTSFATTAYSSSNSYRYWGQGTQVTVSS
notes: as for B2
B5: FJ1427_P035MP07C05 (VHH)
VHH: EVQLVESGGGLVQPGGSLRLSCAASGRALSRLAMGWFRQAPGKEREFVVASSWGDDTFYADSVKGRFTFSRDNAKNTVYLQMNSLQPGDTAVYYCAAAPTSFATTAYSSSNSYAYWGQGTQVTVSS
notes: tested as periplasmic extract; also called Clone nr; 611
B6: FJ1427_P035MP07D02 (VHH)
VHH: QVQLQESGGGLVQAGGSLRLSCAASGRALSRLAMGWFRQAPGKEREFVVASSWGDDTFYADSVKGRFTFSRDNAKNTVYLQMNSLQPGDTAVYYCAAAPTSFATTAYSSSNSYAYWGQGTQVTVSS
notes: tested as periplasmic extract; also called Clone nr; 588
B7: FJ1427_P035MP07D01 (VHH)
VHH: QVQLVESGGGLVQAGGSLRLSCAASGRTLSRYAMGWFRQAPGKEREFVAANSWGGDTYYTDSVEGRFTFSRDNAKNAVYLQMNSLQPGDTAVYYCAAAPTSFATTAYSSSNSYSYWGQGTQVTVSS
notes: tested as periplasmic extract; also called Clone nr; 580
B8: FJ1427_P035MP07E05 (VHH)
VHH: EVQLVESGGGLVQAGGSLRLSCAASGRTLSRYAMGWFRQAPGKEREFVTANSWGGDTYYADSVQGRFTFSRDNAKNTVYLQMNSLQPEDTAVYYCAAAPTSFATTAYSSSNSYAYWGQGTQVTVSS
notes: as for B2
B9: FJ1427_P035MP07E01 (VHH)
VHH: QVQLQESGGGLVQAGGSLRLSCAASGRTLSRYAMGWFRQAPGKEREFVACDSWGGDTFYADSVEGRFTFSRDNAKNATYLQMNSLQPEDTAVYYCAGAPTSFATTAYSSSNSYTVWGQGTQVTVSL
notes: as for B2
B10: FJ1427_P035MP07E04 (VHH)
VHH: QVQLVESGGGLVQAGDSLRLSCEASGRTLSRYAMGWFRQAPGKEREFVTANSWGGDTYYADSVQGRFTFSRDNAKNTVYLQMNSLQPEDTAVYYCAAAPTSFATTAYSSSNSYAYWGQGTQVTVSS
notes: tested as periplasmic extract; also called Clone nr; 605
B11: FJ1427_P035MP07C03 (VHH)
VHH: EVQLVESGGGLVQAGGSLRLSCAASGRTLSRYAMGWFRQAPGKEREFVTANSWGGDTYYADSVQGRFTFSRDNAKNTVYLQMNSLQPEDTAVYYCAAAPTSFATTAYSSSNSYAYWGQGTQVTVSS
notes: as for B2
B12: FJ1427_P035MP07C01 (VHH)
VHH: QVQLVESGGGLVQAGDSLRLSCVASGRTLSRCAMGWFRKAPGKEREYVAISSWGGDTFYEDSVEGRFTFSRDNAKNTVYLQMNSLRPEDTAVYYCAAAPTSFATTAYSSSNSYAYWGQGTQVTVSS
notes: as for B2
B13: FJ1427_P035MP07E02 (VHH)
VHH: QVQLVESGGGLVQAGGSLRLSCAASGRALSRLAMGWFRQAPGKEREFVVASSWGDDTFYADSVKGRFTFSRDNAKNTVYLQMNSLQPGDTAVYYCAAAPTSFATTAYSSSNSYAYWGQGTQVTVSS
notes: as for B2
B14: FJ1427_P035MP07E08 (VHH)
VHH: QVQLVESGGGLVQAGGSLRLSCAASGRTLSRYAMGWFRQAPGKEREFVAADSWGGDTYYDDSVEGRFTFSRDIAKNAVYLQMNSLQPEDTAVYYCAAAPTSFATTAYSSSNSYAYWGQGTQVTVSS
notes: as for B2
B15: FJ1427_P035MP07D06 (VHH)
VHH: EVQLVESGGGLVQAGGSLRLSCAASGRTLSRYAMGWFRQAPGKEREFVTANSWGGDTYYADSVQGRFTFSRDNAKNTVYLQMNSLQPEDTAVYYCAAAPTSFATTAYSSSNSYAYWGQGTQVTVSS
notes: tested as periplasmic extract; also called Clone nr; 620
B16: FJ1427_P035MP07B11 (VHH)
VHH: QVQLVESGGGLVQAGGSLRLSCAASGRALSRLAMGWFRQAPGKEREFVVASSWGDDTFYADSVEGRFTFSRDNAKSTVYLQMNSLQPGDTAVYYCAAAPTSFATTAYSSSNSYAYWGQGTQVTVPS
notes: as for B2
B17: FJ1427_P035MP07B09 (VHH)
VHH: QVQLVESGGGLVQAGGSLRLSCAASGRALSRLAMGWFRQAPGKEREFVVASSWGDDTFYADSVKGRFTFSRDNAKNTVYLQMNSLQPGDTAVYYCAAAPTSFATTAYSSSNSYAYWGQGTQVTVSS
notes: as for B2
B18: FJ1427_P035MP07B10 (VHH)
VHH: QVQLVESGGGLVQAGGSLRLSCAASGRTLSRYAMGWFRQAPGKEREFVAADSWGGDTFYADSVEGRFTFSRDNAKNAAYLQMNSLQPEDTATYYCAGAPTSFATTAYSSSNSYRYWGQGTQVTVSS
notes: tested as periplasmic extract; also called Clone nr; 650
B19: FJ1427_P035MP07D10 (VHH)
VHH: QVQLVESGGGLVQAGGSLRLSCAASGRTLSRYAMGWFRQAPGKEREFVAADSWGGDTYYDDSVEGRFTFSRDIAKNAVYLQMNSLQPEDTAVYYCAAAPTSFATTAYSSSNSYAYWGQGTQVTVSS
notes: as for B2
B20: FJ1427_P035MP07D08 (VHH)
VHH: QLQLVESGGGLVQAGGSLRLSCAASGRTLSRYAMGWFRQAPGKEREFVTANSWGGDTYYADSVQGRFTFSRDNAKNTVYLQMNSLQPEDTAVYYCAAAPTSFATTAYSSSNSYAYWGQGTQVTVSS
notes: as for B2
B21: FJ1427_P035MP07C09 (VHH)
VHH: QVQLVESGGGLVQAGGSLRLSCAASGRTLSRYAMGWFRQAPGKEREYVAIDSWGGDTFYADSVEGRFTFSRDNAKNEVYLQMNSLQPEDTAVYYCAGAPTSFATTAYSSSNSYRYWGQGTQVTVSS
notes: tested as periplasmic extract; also called Clone nr; 643

Legend:
[1] = target: T1, human common cytokine receptor γ-chain …; test: P.E. off-rate SPR
Description: (§1) SPR was performed to determine dissociation rates using Biacore 3000 instrument (GE Healthcare). Briefly, human and mouse IL-2R proteins were immobilized on carboxylmethyl dextran sensor chip (CM5) at approximately 2500 RUs using amine coupling in acetate buffer (GE Healthcare). The VHH-containing P.E. were loaded with a flow rate of 30 uL/min and the off-rates were measured over a 120s period.

[2] = target: T2, mouse common cytokine receptor γ-chain …; test: P.E. off-rate SPR
Description: as §1

[3] = target: T1, human common cytokine receptor γ-chain …; test: P.E. binding ELISA
Description: (§2) In a binding ELISA, human or mouse IL-2Rα, IL-2Rβ and IL-2Rγ proteins were coated directly on maxisorp microtiter plates overnight at 4° C. Free binding sites were blocked using 4% Marvel in PBS for 1 hour. Next, 1:5 dilution of P.E. in 1% Marvel/PBS were added to wells and incubated for 1 hour. […] Binding specificity was determined based on O.D. at 450 nm values compared to negative controls.

[4] = target: T2, mouse common cytokine receptor γ-chain …; test: P.E. binding ELISA
Description: as §2

Binder | koff [1] [s⁻¹] | koff [2] [s⁻¹] | PE binding ELISA OD [3] [OD450 nm] | PE binding ELISA OD [4] [OD450 nm]
B1 | 0.00326 | 0.144 | 0.425 | 0.044
B2 | 0.00447 | 0.126 | 0.865 | 0.045
B3 | 0.00279 | 0.111 | 0.319 | 0.045
B4 | 0.00153 | 0.0609 | 0.733 | 0.054
B5 | 0.00182 | 0.0128 | 0.479 | 0.047
B6 | 0.00152 | 0.0127 | 0.599 | 0.057
B7 | 0.00294 | 0.113 | 1.19 | 0.051
B8 | 0.00372 | 0.12 | 0.434 | 0.045
B9 | 0.00156 | 0.0132 | 0.83 | 0.139
B10 | 0.00259 | 0.103 | 0.729 | 0.046
B11 | 0.00353 | 0.114 | 0.982 | 0.046
B12 | 0.00113 | 0.00694 | 0.945 | 0.923
B13 | 0.00206 | 0.0132 | 0.62 | 0.061
B14 | 0.00229 | 0.13 | 0.642 | 0.049
B15 | 0.00288 | 0.126 | 0.919 | 0.045
B16 | 0.00214 | 0.0114 | 1.25 | 0.246
B17 | 0.00168 | 0.0127 | 1.27 | 0.082
B18 | 0.00175 | 0.0501 | 0.716 | 0.059
B19 | 0.003 | 0.125 | 0.734 | 0.048
B20 | 0.00263 | 0.0991 | 1.03 | 0.05
B21 | 0.00137 | 0.00703 | 0.723 | 0.755
